Results published in the supplement of paper PMC9112550, “Optimization of the antimicrobial peptide Bac7 by deep mutational scanning” (BMC Biology, 2022).

What follows are sequences tested on Escherichia coli TOP10 (assay: shrunken log2 fold change of peptide-encoding DNA abundance (4.5 h post-induction vs induction); higher = less antimicrobial activity (less host growth inhibition)). Conditions: time post-induction: 4.5 h; library: site-saturation at positions 5, 18, 19, 20.
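Further: peptides expressed intracellularly from a pBAD plasmid library in pooled LB shake-flask culture, induced with 0.3% L-arabinose, DNA abundance read by NGS, three biological replicates, DESeq2 with apeglm shrinkage.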

Row | Sequence | shrunken log2 fold change
1 | RRIRVRPPRLPRPRPRPRHKPRP | 0.13
2 | RRIRYRPPRLPRPRPRPTYSPRP | -0.443
3 | RRIRYRPPRLPRPRPRPQHLPRP | -0.262
4 | RRIRCRPPRLPRPRPRPRFMPRP | -0.244
5 | RRIRSRPPRLPRPRPRPHAVPRP | 0.0594
6 | RRIRLRPPRLPRPRPRPMAMPRP | 0.0591
7 | RRIRFRPPRLPRPRPRPAAGPRP | 0.333
8 | RRIRPRPPRLPRPRPRPMAGPRP | -0.13
9 | RRIRQRPPRLPRPRPRPANDPRP | -0.103
10 | RRIRHRPPRLPRPRPRPCARPRP | -0.0479
11 | RRIRCRPPRLPRPRPRPRIDPRP | 0.117
12 | RRIRSRPPRLPRPRPRPHHMPRP | -1.11
13 | RRIRNRPPRLPRPRPRPRWNPRP | -0.297
14 | RRIRPRPPRLPRPRPRPNGIPRP | -0.153
15 | RRIRERPPRLPRPRPRPLSWPRP | 0.04
16 | RRIRIRPPRLPRPRPRPVPRPRP | 0.0562
17 | RRIRGRPPRLPRPRPRPVRDPRP | 0.401
18 | RRIRVRPPRLPRPRPRPCNVPRP | -0.452
19 | RRIRFRPPRLPRPRPRPAFWPRP | 0.516
20 | RRIRARPPRLPRPRPRPVCVPRP | 0.579
21 | RRIRPRPPRLPRPRPRPNYIPRP | -0.739
22 | RRIRNRPPRLPRPRPRPPFDPRP | 0.141
23 | RRIRWRPPRLPRPRPRPMDSPRP | -0.198
24 | RRIRGRPPRLPRPRPRPPEYPRP | 0.448
25 | RRIRIRPPRLPRPRPRPGLRPRP | -0.0223

Row | Sequence | shrunken log2 fold change
26 | RRIRGRPPRLPRPRPRPGSMPRP | 0.305
27 | RRIRVRPPRLPRPRPRPAVAPRP | 0.266
28 | RRIRLRPPRLPRPRPRPGPCPRP | 0.121
29 | RRIRVRPPRLPRPRPRPNHFPRP | -0.346
30 | RRIRERPPRLPRPRPRPPMFPRP | -0.203
31 | RRIRIRPPRLPRPRPRPSKNPRP | -0.76
32 | RRIRVRPPRLPRPRPRPWLNPRP | -0.106
33 | RRIRMRPPRLPRPRPRPVDTPRP | 0.361
34 | RRIRCRPPRLPRPRPRPKFQPRP | -0.0341
35 | RRIRVRPPRLPRPRPRPLELPRP | -0.103
36 | RRIRGRPPRLPRPRPRPFQDPRP | -0.000102
37 | RRIRERPPRLPRPRPRPGSQPRP | -0.196
38 | RRIRKRPPRLPRPRPRPRPKPRP | 1.03
39 | RRIRLRPPRLPRPRPRPSYPPRP | -0.472
40 | RRIRYRPPRLPRPRPRPNMNPRP | -0.882
41 | RRIRQRPPRLPRPRPRPGTEPRP | 0.119
42 | RRIRLRPPRLPRPRPRPAMWPRP | 0.373
43 | RRIRYRPPRLPRPRPRPFNCPRP | -0.362
44 | RRIRMRPPRLPRPRPRPMYDPRP | -0.0496
45 | RRIRRRPPRLPRPRPRPMNGPRP | -0.0419
46 | RRIRSRPPRLPRPRPRPLQKPRP | 0.0179
47 | RRIRLRPPRLPRPRPRPEVIPRP | 0.178
48 | RRIRRRPPRLPRPRPRPKPSPRP | 0.294
49 | RRIRRRPPRLPRPRPRPLSMPRP | 0.263
50 | RRIRHRPPRLPRPRPRPHANPRP | -0.124

Row | Sequence | shrunken log2 fold change
51 | RRIRYRPPRLPRPRPRPFVTPRP | -0.156
52 | RRIRIRPPRLPRPRPRPGYHPRP | -0.298
53 | RRIRTRPPRLPRPRPRPYVMPRP | -1.53
54 | RRIRLRPPRLPRPRPRPTYAPRP | -0.167
55 | RRIRERPPRLPRPRPRPSPFPRP | -0.972
56 | RRIRARPPRLPRPRPRPCCVPRP | 0.559
57 | RRIRPRPPRLPRPRPRPKDCPRP | 0.107
58 | RRIRVRPPRLPRPRPRPLWWPRP | 0.855
59 | RRIRLRPPRLPRPRPRPYHYPRP | -0.16
60 | RRIRDRPPRLPRPRPRPKDWPRP | 0.601
61 | RRIRDRPPRLPRPRPRPGLCPRP | 0.224
62 | RRIRDRPPRLPRPRPRPVHYPRP | 0.0175
63 | RRIRMRPPRLPRPRPRPSHMPRP | -0.146
64 | RRIRWRPPRLPRPRPRPLTWPRP | 0.302
65 | RRIRIRPPRLPRPRPRPHGRPRP | -0.0215
66 | RRIRCRPPRLPRPRPRPEANPRP | 0.477
67 | RRIRDRPPRLPRPRPRPIIPPRP | -0.644
68 | RRIRGRPPRLPRPRPRPIFVPRP | 0.42
69 | RRIRLRPPRLPRPRPRPKHFPRP | -0.494
70 | RRIRVRPPRLPRPRPRPIWFPRP | -0.0241
71 | RRIRFRPPRLPRPRPRPADTPRP | -0.109
72 | RRIRARPPRLPRPRPRPTIVPRP | -0.152
73 | RRIRKRPPRLPRPRPRPLHMPRP | 0.102
74 | RRIRRRPPRLPRPRPRPKHAPRP | 0.407
75 | RRIRHRPPRLPRPRPRPADMPRP | 0.0208

Row | Sequence | shrunken log2 fold change
76 | RRIRWRPPRLPRPRPRPQDCPRP | -0.014
77 | RRIRTRPPRLPRPRPRPWVAPRP | -0.0456
78 | RRIRNRPPRLPRPRPRPINSPRP | -0.208
79 | RRIRQRPPRLPRPRPRPFGEPRP | 0.287
80 | RRIRRRPPRLPRPRPRPMEMPRP | -0.0817
81 | RRIRVRPPRLPRPRPRPRYLPRP | -0.184
82 | RRIRGRPPRLPRPRPRPQKQPRP | 0.154
83 | RRIRARPPRLPRPRPRPWVSPRP | -0.0266
84 | RRIRWRPPRLPRPRPRPLNYPRP | -0.546
85 | RRIRWRPPRLPRPRPRPKMNPRP | 0.0146
86 | RRIRMRPPRLPRPRPRPRVAPRP | 0.699
87 | RRIRCRPPRLPRPRPRPWPNPRP | -0.279
88 | RRIRERPPRLPRPRPRPYAVPRP | -0.441
89 | RRIRGRPPRLPRPRPRPVWPPRP | 0.947
90 | RRIRARPPRLPRPRPRPKTMPRP | 0.352
91 | RRIRVRPPRLPRPRPRPCMGPRP | -0.234
92 | RRIRRRPPRLPRPRPRPFGEPRP | 0.412
93 | RRIRWRPPRLPRPRPRPMGQPRP | 0.0149
94 | RRIRDRPPRLPRPRPRPDENPRP | 0.511
95 | RRIRSRPPRLPRPRPRPCHAPRP | -0.0203
96 | RRIRRRPPRLPRPRPRPWEDPRP | 0.0594
97 | RRIRERPPRLPRPRPRPQGHPRP | -0.0972
98 | RRIRKRPPRLPRPRPRPNMYPRP | -0.14
99 | RRIRDRPPRLPRPRPRPSWCPRP | -0.0805
100 | RRIRTRPPRLPRPRPRPGKIPRP | 0.0168

Row | Sequence | shrunken log2 fold change
101 | RRIRWRPPRLPRPRPRPRQFPRP | 0.0819
102 | RRIRFRPPRLPRPRPRPVIVPRP | -0.997
103 | RRIRERPPRLPRPRPRPLLSPRP | -0.206
104 | RRIRKRPPRLPRPRPRPQVKPRP | 0.0274
105 | RRIRQRPPRLPRPRPRPRLPPRP | 0.467
106 | RRIRLRPPRLPRPRPRPMNIPRP | -0.504
107 | RRIRTRPPRLPRPRPRPQFVPRP | -0.127
108 | RRIRCRPPRLPRPRPRPAKVPRP | -0.243
109 | RRIRKRPPRLPRPRPRPFDQPRP | -0.0318
110 | RRIRCRPPRLPRPRPRPYSWPRP | -0.77
111 | RRIRDRPPRLPRPRPRPRCRPRP | -0.0929
112 | RRIRMRPPRLPRPRPRPIWDPRP | 0.0663
113 | RRIRTRPPRLPRPRPRPFIHPRP | -0.0383
114 | RRIRFRPPRLPRPRPRPQWCPRP | -0.0514
115 | RRIRDRPPRLPRPRPRPNGLPRP | -0.0178
116 | RRIRKRPPRLPRPRPRPTNAPRP | 0.733
117 | RRIRVRPPRLPRPRPRPHIDPRP | -0.15
118 | RRIRPRPPRLPRPRPRPKQMPRP | 0.268
119 | RRIRNRPPRLPRPRPRPSQDPRP | -0.102
120 | RRIRGRPPRLPRPRPRPPPGPRP | 1.36
121 | RRIRTRPPRLPRPRPRPMQCPRP | -0.00968
122 | RRIRCRPPRLPRPRPRPTFPPRP | -0.0779
123 | RRIRNRPPRLPRPRPRPWNKPRP | -0.184
124 | RRIRHRPPRLPRPRPRPCWVPRP | -0.0013
125 | RRIRCRPPRLPRPRPRPGNWPRP | 0.0422

Row | Sequence | shrunken log2 fold change
126 | RRIRYRPPRLPRPRPRPIDDPRP | -1.19
127 | RRIRTRPPRLPRPRPRPSNSPRP | -1.22
128 | RRIRFRPPRLPRPRPRPPLMPRP | 0.154
129 | RRIRDRPPRLPRPRPRPIIFPRP | -0.00292
130 | RRIRNRPPRLPRPRPRPVNRPRP | 0.00717
131 | RRIRRRPPRLPRPRPRPCCYPRP | 0.0352
132 | RRIRIRPPRLPRPRPRPQKAPRP | 0.0173
133 | RRIRIRPPRLPRPRPRPLQIPRP | -0.165
134 | RRIRSRPPRLPRPRPRPRKHPRP | 0.0783
135 | RRIRRRPPRLPRPRPRPNALPRP | 0.261
136 | RRIRNRPPRLPRPRPRPGHQPRP | -0.0155
137 | RRIRHRPPRLPRPRPRPSPIPRP | -0.175
138 | RRIRGRPPRLPRPRPRPEPFPRP | 0.218
139 | RRIRIRPPRLPRPRPRPMQCPRP | -0.235
140 | RRIRYRPPRLPRPRPRPCQKPRP | -0.0134
141 | RRIRSRPPRLPRPRPRPQFEPRP | 0.189
142 | RRIRHRPPRLPRPRPRPVLPPRP | -0.0347
143 | RRIRLRPPRLPRPRPRPCMNPRP | -0.07
144 | RRIRERPPRLPRPRPRPTEIPRP | 0.135
145 | RRIRRRPPRLPRPRPRPGINPRP | 0.016
146 | RRIRLRPPRLPRPRPRPKFCPRP | -0.0573
147 | RRIRTRPPRLPRPRPRPDRWPRP | 0.0353
148 | RRIRNRPPRLPRPRPRPVQNPRP | -0.0269
149 | RRIRLRPPRLPRPRPRPQQCPRP | 0.146
150 | RRIRHRPPRLPRPRPRPYHLPRP | -0.085
